This is an account of results in patent US8338155B2, “Modified mevalonate kinase with reduced feedback inhibition” (DSM IP Assets B.V., priority 2004, dated 2012).

Data set [1] relates to Saccharomyces cerevisiae mevalonate kinase. Kind of data set: Inhibition of mevalonate kinase activity by the feedback inhibitor FPP: feedback resistance. The class given is biochemical. The conditions noted are these: 1 μM FPP; % resistance=100·((d/c)−(b/a))/(1−(b/a)) relative to wild-type. As for the experimental part: “Feedback resistance” as used herein may be any increase in resistance to “feedback inhibition” (as defined above). Feedback resistance can be analyzed in different ways known to those skilled in the art. An appropriate example of such an analysis is shortly described herein: mevalonate kinase activity is measured in an activity assay at non-saturating concentrations of for instance ATP (or of another phosphate donor) and mevalonate (or mevalonate analogue), i.e., at for instance ATP (or phosphate donor) and mevalonate (or mevalonate analogue) concentrations around which the reaction rate is sensitive to changes of these substrate concentrations, e.g., at concentrations around the respective Km values of the enzyme under investigation for these substrates. The activities of both wild-type mevalonate kinase and of a variant/mutant of this enzyme are measured under otherwise identical conditions both in the absence and presence of a relevant concentration of a feedback inhibitor, i.e., at a concentration of feedback inhibitor affording significant inhibition of the wild-type mevalonate kinase. If the extent of inhibition (e.g., % inhibition) by the feedback inhibitor is lower for the mutant than for the wild-type enzyme, then the mutant is feedback resistant in the context of the present patent application. Once a feedback resistant variant/mutant has been identified, the same procedure as described above may be applied to identify further improved mutants, i.e., mutants that are even more feedback resistant. Feedback resistance (%) is calculated as follows: if (a) and (b) are the measured mevalonate kinase activities of the wild-type enzyme in the absence and presence, respectively, of the feedback inhibitor (e.g., FPP), and if (c) and (d) are the measured mevalonate kinase activities of the mutant enzyme in the absence and presence, respectively, of the same feedback inhibitor, then % feedback resistance is: % resistance=100·((d/c)−(b/a))/(1−(b/a))
(§1) For preparing mevalonate as substrate, 130 mg of DL-mevalonate lactone (FLUKA Chemie AG, Buchs, Switzerland) were dissolved in 5.5 ml of 0.2 M KOH and incubated for 15 min at 50° C. The solution was then adjusted to pH 7.0 by addition of 0.1 M HCl at room temperature (RT). Except if stated otherwise, the assay mixture consisted of 100 mM K2BPO/KH2PO4 (pH 7.0), 1 mM ATP, 2 mM MgCl2, 1 mM mevalonate, 0.5 mM phosphoenolpyruvate (PEP), 0.32 mM NADH, 20 U/ml pyruvate kinase and 27 U/ml lactate dehydrogenase (Sigma-Aldrich, St. Louis, Mo., USA). Inhibition was tested by adding 1 μM FPP.
(§2) Purification of His6-tagged mevalonate kinase and of His6-tagged mevalonate kinase mutant enzymes was done with Ni-NTA chromatography using the QIAexpress system/reagents of Qiagen. Upon addition of purified (His6-tagged) mevalonate kinase, enzymatic reaction reflected by consumption of NADH was followed by photometric measurement at 340 nm. One unit (1 U) of mevalonate kinase activity catalyzes the phosphorylation of 1 μmol of mevalonate per min.
(§3) Preparation of Mevalonate and Activity Measurement was Exactly Performed as Described in Example 1. 1 μM FPP was used for inhibition assays performed with the Saccharomyces cerevisiae mevalonate kinase wild-type enzyme and its mutants.
Feedback resistance (%) was calculated according to the following formula: % resistance=100·((d/c)−(b/a))/(1−(b/a)) wherein (a) and (b) refer to the measured mevalonate kinase activities of the wild-type enzyme in the absence and presence, respectively, and (c) and (d) refer to the measured mevalonate kinase activities of the mutant enzyme in the absence and presence, respectively, of FPP. The results are shown in Tab. 1, wherein WT represents the non-mutated mevalonate kinase containing a His6-tag (SEQ ID NO:3).

Data set [2] has the same test system. The experiment in a line: Mevalonate kinase activity assay (NADH consumption, photometric at 340 nm): specific activity. It counts as biochemical. The conditions noted are these: purified His6-tagged enzyme; WT = non-mutated His6-tagged mevalonate kinase.
Description: Methods for measuring specific activity are known to the person skilled in the art. The specific activity may for instance be determined via measuring the consumption of NADH. Suitable conditions for such measurement may be those as e.g. outlined in Example 1 except that, typically, saturating substrate concentrations are used or, in the case of enzyme inhibition at high substrate concentrations, at substrate concentrations that provide maximal activity under the particular experimental conditions.
as §1, §2, §3

B1: F59S: Saccharomyces cerevisiae mevalonate kinase mutant with substitution F59S (protein, listed as Saccharomyces cerevisiae)
chain: MSLPFLTSAPGKVIIFGEHSAVYNKPAVAASVSALRTYLLISESSAPDTIELDFPDISSNHKWSINDFNAITEDQVNSQKLAKAQQATDGLSQELVSLLDPLLAQLSESFHYHAAFCFLYMFVCLCPHAKNIKFSLKSTLPIGAGLGSSASISVSLALAMAYLGGLIGSNDLEKLSENDKHIVNQWAFIGEKCIHGTPSGIDNAVATYGNALLFEKDSHNGTINTNNFKFLDDFPAIPMILTYTRIPRSTKDLVARVRVLVTEKFPEVMKPILDAMGECALQGLEIMTKLSKCKGTDDEAVETNNELYEQLLELIRINHGLLVSIGVSHPGLELIKNLSDDLRIGSTKLTGAGGGGCSLTLLRRDITQEQIDSFKKKLQDDFSYETFETDLGGTGCCLLSAKNLNKDLKIKSLVFQLFENKTTTKQQIDDLLLPGNTNLPWTS
As for B1, the “Feedback resistance (%)” value in data set [1] was determined as 56%. Besides, the “Specific activity (% of wild-type)” value in data set [2] is given as 31 % of wild-type.

B2: P55L, C117S: Saccharomyces cerevisiae mevalonate kinase mutant with substitutions P55L and C117S (protein, listed as Saccharomyces cerevisiae)
chain: MSLPFLTSAPGKVIIFGEHSAVYNKPAVAASVSALRTYLLISESSAPDTIELDFLDISFNHKWSINDFNAITEDQVNSQKLAKAQQATDGLSQELVSLLDPLLAQLSESFHYHAAFSFLYMFVCLCPHAKNIKFSLKSTLPIGAGLGSSASISVSLALAMAYLGGLIGSNDLEKLSENDKHIVNQWAFIGEKCIHGTPSGIDNAVATYGNALLFEKDSHNGTINTNNFKFLDDFPAIPMILTYTRIPRSTKDLVARVRVLVTEKFPEVMKPILDAMGECALQGLEIMTKLSKCKGTDDEAVETNNELYEQLLELIRINHGLLVSIGVSHPGLELIKNLSDDLRIGSTKLTGAGGGGCSLTLLRRDITQEQIDSFKKKLQDDFSYETFETDLGGTGCCLLSAKNLNKDLKIKSLVFQLFENKTTTKQQIDDLLLPGNTNLPWTS
Take B2: the “Feedback resistance (%)” value in data set [1] is on record as 58%. In addition, the “Specific activity (% of wild-type)” value in data set [2] is 60 % of wild-type.

B3: I142N, L158S, L231I, T367S: Saccharomyces cerevisiae mevalonate kinase mutant with substitutions I142N, L158S, L231I and T367S (protein, listed as Saccharomyces cerevisiae)
chain: MSLPFLTSAPGKVIIFGEHSAVYNKPAVAASVSALRTYLLISESSAPDTIELDFPDISFNHKWSINDFNAITEDQVNSQKLAKAQQATDGLSQELVSLLDPLLAQLSESFHYHAAFCFLYMFVCLCPHAKNIKFSLKSTLPNGAGLGSSASISVSLASAMAYLGGLIGSNDLEKLSENDKHIVNQWAFIGEKCIHGTPSGIDNAVATYGNALLFEKDSHNGTINTNNFKFIDDFPAIPMILTYTRIPRSTKDLVARVRVLVTEKFPEVMKPILDAMGECALQGLEIMTKLSKCKGTDDEAVETNNELYEQLLELIRINHGLLVSIGVSHPGLELIKNLSDDLRIGSTKLTGAGGGGCSLTLLRRDISQEQIDSFKKKLQDDFSYETFETDLGGTGCCLLSAKNLNKDLKIKSLVFQLFENKTTTKQQIDDLLLPGNTNLPWTS
Take B3: the “Feedback resistance (%)” value in data set [1] turned out to be 58%. Further, the “Specific activity (% of wild-type)” value in data set [2] is 61 % of wild-type.

B4: K83E, S249P: Saccharomyces cerevisiae mevalonate kinase mutant with substitutions K83E and S249P (protein, listed as Saccharomyces cerevisiae)
chain: MSLPFLTSAPGKVIIFGEHSAVYNKPAVAASVSALRTYLLISESSAPDTIELDFPDISFNHKWSINDFNAITEDQVNSQKLAEAQQATDGLSQELVSLLDPLLAQLSESFHYHAAFCFLYMFVCLCPHAKNIKFSLKSTLPIGAGLGSSASISVSLALAMAYLGGLIGSNDLEKLSENDKHIVNQWAFIGEKCIHGTPSGIDNAVATYGNALLFEKDSHNGTINTNNFKFLDDFPAIPMILTYTRIPRPTKDLVARVRVLVTEKFPEVMKPILDAMGECALQGLEIMTKLSKCKGTDDEAVETNNELYEQLLELIRINHGLLVSIGVSHPGLELIKNLSDDLRIGSTKLTGAGGGGCSLTLLRRDITQEQIDSFKKKLQDDFSYETFETDLGGTGCCLLSAKNLNKDLKIKSLVFQLFENKTTTKQQIDDLLLPGNTNLPWTS
As for B4, in data set [1], the “Feedback resistance (%)” value amounted to 37%. Moreover, the “Specific activity (% of wild-type)” value in data set [2] was 78 % of wild-type.

B5: H111N, K375N: Saccharomyces cerevisiae mevalonate kinase mutant with substitutions H111N and K375N (protein, listed as Saccharomyces cerevisiae)
chain: MSLPFLTSAPGKVIIFGEHSAVYNKPAVAASVSALRTYLLISESSAPDTIELDFPDISFNHKWSINDFNAITEDQVNSQKLAKAQQATDGLSQELVSLLDPLLAQLSESFNYHAAFCFLYMFVCLCPHAKNIKFSLKSTLPIGAGLGSSASISVSLALAMAYLGGLIGSNDLEKLSENDKHIVNQWAFIGEKCIHGTPSGIDNAVATYGNALLFEKDSHNGTINTNNFKFLDDFPAIPMILTYTRIPRSTKDLVARVRVLVTEKFPEVMKPILDAMGECALQGLEIMTKLSKCKGTDDEAVETNNELYEQLLELIRINHGLLVSIGVSHPGLELIKNLSDDLRIGSTKLTGAGGGGCSLTLLRRDITQEQIDSFNKKLQDDFSYETFETDLGGTGCCLLSAKNLNKDLKIKSLVFQLFENKTTTKQQIDDLLLPGNTNLPWTS
As for B5, the “Feedback resistance (%)” value in data set [1] is listed as 65%. In addition, in data set [2], the “Specific activity (% of wild-type)” value was 87 % of wild-type.

B6: L106P, S218P: Saccharomyces cerevisiae mevalonate kinase mutant with substitutions L106P and S218P (protein, listed as Saccharomyces cerevisiae)
chain: MSLPFLTSAPGKVIIFGEHSAVYNKPAVAASVSALRTYLLISESSAPDTIELDFPDISFNHKWSINDFNAITEDQVNSQKLAKAQQATDGLSQELVSLLDPLLAQPSESFHYHAAFCFLYMFVCLCPHAKNIKFSLKSTLPIGAGLGSSASISVSLALAMAYLGGLIGSNDLEKLSENDKHIVNQWAFIGEKCIHGTPSGIDNAVATYGNALLFEKDPHNGTINTNNFKFLDDFPAIPMILTYTRIPRSTKDLVARVRVLVTEKFPEVMKPILDAMGECALQGLEIMTKLSKCKGTDDEAVETNNELYEQLLELIRINHGLLVSIGVSHPGLELIKNLSDDLRIGSTKLTGAGGGGCSLTLLRRDITQEQIDSFKKKLQDDFSYETFETDLGGTGCCLLSAKNLNKDLKIKSLVFQLFENKTTTKQQIDDLLLPGNTNLPWTS
Regarding B6, in data set [1], the “Feedback resistance (%)” value was found to be 24%. In data set [2], the “Specific activity (% of wild-type)” value is 42 % of wild-type.

B7: WT: non-mutated Saccharomyces cerevisiae mevalonate kinase containing a His6-tag (SEQ ID NO:3) (protein, listed as Saccharomyces cerevisiae)
chain: MRGSHHHHHHGSACSLPFLTSAPGKVIIFGEHSAVYNKPAVAASVSALRTYLLISESSAPDTIELDFPDISFNHKWSINDFNAITEDQVNSQKLAKAQQATDGLSQELVSLLDPLLAQLSESFHYHAAFCFLYMFVCLCPHAKNIKFSLKSTLPIGAGLGSSASISVSLALAMAYLGGLIGSNDLEKLSENDKHIVNQWAFIGEKCIHGTPSGIDNAVATYGNALLFEKDSHNGTINTNNFKFLDDFPAIPMILTYTRIPRSTKDLVARVRVLVTEKFPEVMKPILDAMGECALQGLEIMTKLSKCKGTDDEAVETNNELYEQLLELIRINHGLLVSIGVSHPGLELIKNLSDDLRIGSTKLTGAGGGGCSLTLLRRDITQEQIDSFKKKLQDDFSYETFETDLGGTGCCLLSAKNLNKDLKIKSLVFQLFENKTTTKQQIDDLLLPGNTNLPWTS
modifications: His6-tag
Consider B7, for which the “Feedback resistance (%)” value in data set [1] is 0%. Moreover, the “Specific activity (% of wild-type)” value in data set [2] is recorded as 100 % of wild-type.
